Source: paper PMC5437018
Like-named read-outs stand apart in the source and are kept apart here.

Key:
PP1 (Homo sapiens) [1] = target: PP1 (Homo sapiens) (UniProt P62136); details: cited from earlier work
PP1 (Homo sapiens) [2] = target: PP1 (Homo sapiens) (UniProt P62136); details: cited from earlier work; remark: listed apart in the source
PP1 (Homo sapiens) [3] = target: PP1 (Homo sapiens) (UniProt P62136); details: cited from earlier work; remark: listed apart in the source
[4] = target: Recombinant purified α-isoform of mammalian PP1 (residues 1–330), tag cleaved (mammalian) (UniProt P62136); experiment: SPR; Biacore 3000; PP1 covalently coupled to a CM5 chip; Rif1 CRI, mutants and peptide injected at 20 µl/min in 10 mM Tris-HCl pH 7.5, 250 mM NaCl, 1 mM DTT, 2 mM MnCl2, 0.005% Tween 20; 1:1 binding model
PP1 (Homo sapiens) [5] = target: PP1 (Homo sapiens) (UniProt P62136); details: cited from earlier work; remark: listed apart in the source

Sequence of PP1 (Homo sapiens) (P62136 2-330): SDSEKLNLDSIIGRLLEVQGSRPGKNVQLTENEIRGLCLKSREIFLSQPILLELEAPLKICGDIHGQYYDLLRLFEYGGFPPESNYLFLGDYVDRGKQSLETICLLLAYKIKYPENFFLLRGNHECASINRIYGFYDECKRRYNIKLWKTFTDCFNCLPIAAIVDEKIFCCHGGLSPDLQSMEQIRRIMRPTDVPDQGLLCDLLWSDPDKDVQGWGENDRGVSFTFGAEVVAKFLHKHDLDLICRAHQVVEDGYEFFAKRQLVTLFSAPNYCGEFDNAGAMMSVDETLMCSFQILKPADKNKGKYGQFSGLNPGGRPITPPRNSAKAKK
Sequence of Recombinant purified α-isoform of mammalian PP1 (residues 1–330), tag cleaved (mammalian) (P62136 whole entry, the tested form may be a part, canonical isoform): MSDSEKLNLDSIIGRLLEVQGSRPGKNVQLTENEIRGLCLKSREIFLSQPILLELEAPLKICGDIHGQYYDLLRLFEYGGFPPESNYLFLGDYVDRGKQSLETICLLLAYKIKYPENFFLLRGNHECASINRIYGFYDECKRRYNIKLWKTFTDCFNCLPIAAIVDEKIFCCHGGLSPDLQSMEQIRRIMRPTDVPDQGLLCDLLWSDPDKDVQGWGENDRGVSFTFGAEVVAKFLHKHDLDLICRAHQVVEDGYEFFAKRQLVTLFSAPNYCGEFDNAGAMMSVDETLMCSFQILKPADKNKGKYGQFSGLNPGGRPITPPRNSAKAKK
Sequence of PNUTS (Q96QC0 whole entry): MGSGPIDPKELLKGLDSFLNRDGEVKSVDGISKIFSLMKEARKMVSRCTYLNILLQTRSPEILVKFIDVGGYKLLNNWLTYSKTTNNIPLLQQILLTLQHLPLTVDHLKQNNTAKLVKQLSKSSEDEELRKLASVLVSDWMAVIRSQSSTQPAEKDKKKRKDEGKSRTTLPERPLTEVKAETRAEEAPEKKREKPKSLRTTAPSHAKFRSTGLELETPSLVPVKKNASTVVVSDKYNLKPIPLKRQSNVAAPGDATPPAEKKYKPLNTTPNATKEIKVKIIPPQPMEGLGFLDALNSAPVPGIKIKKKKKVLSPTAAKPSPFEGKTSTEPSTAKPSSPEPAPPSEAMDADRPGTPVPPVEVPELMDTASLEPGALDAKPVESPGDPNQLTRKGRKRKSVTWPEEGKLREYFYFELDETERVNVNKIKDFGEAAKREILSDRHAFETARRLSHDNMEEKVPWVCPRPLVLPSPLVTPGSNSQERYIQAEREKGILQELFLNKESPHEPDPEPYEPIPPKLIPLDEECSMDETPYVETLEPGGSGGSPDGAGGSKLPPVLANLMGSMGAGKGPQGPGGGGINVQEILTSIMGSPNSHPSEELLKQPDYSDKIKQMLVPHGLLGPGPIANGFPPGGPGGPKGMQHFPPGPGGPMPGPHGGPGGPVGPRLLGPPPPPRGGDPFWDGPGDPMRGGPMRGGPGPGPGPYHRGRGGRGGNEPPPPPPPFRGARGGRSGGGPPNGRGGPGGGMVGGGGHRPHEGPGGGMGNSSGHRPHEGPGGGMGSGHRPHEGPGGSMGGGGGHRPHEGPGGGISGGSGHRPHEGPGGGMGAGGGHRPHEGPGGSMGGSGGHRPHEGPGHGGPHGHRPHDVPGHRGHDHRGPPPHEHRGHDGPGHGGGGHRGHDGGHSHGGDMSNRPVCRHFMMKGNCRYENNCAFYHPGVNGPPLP
Sequence of NIPP1 (Q12972 whole entry): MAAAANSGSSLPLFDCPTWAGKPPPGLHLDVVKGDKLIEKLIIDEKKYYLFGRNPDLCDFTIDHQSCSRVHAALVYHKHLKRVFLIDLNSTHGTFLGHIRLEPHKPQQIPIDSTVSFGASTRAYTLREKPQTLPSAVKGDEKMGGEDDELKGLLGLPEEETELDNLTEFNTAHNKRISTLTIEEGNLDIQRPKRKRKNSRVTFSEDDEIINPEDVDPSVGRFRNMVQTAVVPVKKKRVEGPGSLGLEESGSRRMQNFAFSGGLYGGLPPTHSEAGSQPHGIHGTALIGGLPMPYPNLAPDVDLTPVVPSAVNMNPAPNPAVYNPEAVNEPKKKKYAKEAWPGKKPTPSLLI
Sequence of spinophilin (O35274 417-494): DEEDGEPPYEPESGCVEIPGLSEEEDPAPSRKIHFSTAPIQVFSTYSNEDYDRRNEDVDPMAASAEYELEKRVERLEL
Sequence of GADD34 (O75807 whole entry): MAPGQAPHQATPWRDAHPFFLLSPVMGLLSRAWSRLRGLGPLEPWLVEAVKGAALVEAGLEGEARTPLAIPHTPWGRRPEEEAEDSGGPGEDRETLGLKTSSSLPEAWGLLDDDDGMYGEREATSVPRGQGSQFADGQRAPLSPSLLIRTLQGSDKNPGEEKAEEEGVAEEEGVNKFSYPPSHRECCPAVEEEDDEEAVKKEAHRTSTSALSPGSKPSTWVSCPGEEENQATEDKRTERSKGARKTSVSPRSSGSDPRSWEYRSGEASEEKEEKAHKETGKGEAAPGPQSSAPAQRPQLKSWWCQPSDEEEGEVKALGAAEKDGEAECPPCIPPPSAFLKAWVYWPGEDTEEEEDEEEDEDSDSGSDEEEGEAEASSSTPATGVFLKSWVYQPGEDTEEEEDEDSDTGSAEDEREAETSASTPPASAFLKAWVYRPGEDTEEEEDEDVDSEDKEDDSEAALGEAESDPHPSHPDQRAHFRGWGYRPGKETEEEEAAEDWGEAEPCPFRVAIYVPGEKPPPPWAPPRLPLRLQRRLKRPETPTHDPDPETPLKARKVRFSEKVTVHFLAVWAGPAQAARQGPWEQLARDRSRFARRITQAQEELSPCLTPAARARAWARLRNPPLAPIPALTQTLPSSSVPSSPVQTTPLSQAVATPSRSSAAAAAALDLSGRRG

With GADD34 (from UniProt O75807) as the substance, how does the Kd (PP1 (Homo sapiens) [1]) read?
The Kd was 62 nM.

With NIPP1 (from UniProt Q12972) as the substance, how does the Kd (PP1 (Homo sapiens) [2]) read?
Its Kd is 73 nM.

Which Kd (PP1 (Homo sapiens) [3]) does the source give for PNUTS (from UniProt Q96QC0) here?
Its Kd is 8.7 nM.

Which fold decrease in affinity against wild type [4] does the source give for “Rif1 CRI (2093–2190) RVSF to RASF (from UniProt Q6PR54 2093-2190) (domain or fragment)” here?
The fold decrease in affinity against wild type was 20 fold.

Which affinity as percent of the wild-type interaction [4] does the source give for “Rif1 CRI (2093–2190) RVSF to RVSA (from UniProt Q6PR54 2093-2190) (domain or fragment)” here?
Its affinity as percent of the wild-type interaction is less than 0.1%.

With “Rif1 CRI (2093–2190) SILK to SAAA (from UniProt Q6PR54 2093-2190) (domain or fragment)” as the substance, how does the fold decrease in affinity against wild type [4] read?
The fold decrease in affinity against wild type was 20 fold.

Which Kd (PP1 (Homo sapiens) [5]) does the source give for spinophilin (from UniProt O35274) here?
Its Kd is 9.3 nM.
